Experimental data as given in patent US10821189B2, “CD38 ligand-drug conjugates for targeted cancer therapy” (THE METHODIST HOSPITAL SYSTEM, priority 2015, dated 2020).

T1: cellular CD38 proteins from MM cells (MM1S) (Homo sapiens, UniProt P28907)
T1 construct: cells were lysed in radioimmunoprecipitation assay (RIPA) buffer; endogenous in cells; host or cells: MM1S (CD38+ myeloma cell line), RIPA lysate
T1 sequence (P28907 1-300): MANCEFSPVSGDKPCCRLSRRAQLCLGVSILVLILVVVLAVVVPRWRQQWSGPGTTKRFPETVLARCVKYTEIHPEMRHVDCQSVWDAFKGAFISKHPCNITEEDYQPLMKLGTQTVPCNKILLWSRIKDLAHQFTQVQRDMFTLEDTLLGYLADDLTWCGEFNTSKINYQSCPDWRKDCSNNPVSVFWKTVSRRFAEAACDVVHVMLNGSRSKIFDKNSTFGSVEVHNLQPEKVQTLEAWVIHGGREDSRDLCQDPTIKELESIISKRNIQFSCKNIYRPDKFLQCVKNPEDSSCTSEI

B1: Aptamer#1S: truncated 61-mer of Aptamer#1 inheriting the intact stem-loop structure, SEQ ID NO: 2 (nucleic acid)
DNA: TCCAGAGTGACGCAGCAGCCAACGTGCTTTCTACCTTATTTTCCGTCACTCTCACTCTGGA
modifications: DNA, backbone and methylation of C not given here; further chemistry not fully specified

Tests used:
MM cells (RPMI8226) = experiment: Intracellular DOX delivery by confocal microscopy, MM cells; format: cell-based, Human; settings: RPMI8226, 2 h treatment, equal molar DOX
Experimental: (§1) CD38+ MM and CD38− non-MM cells were incubated with free DOX (0.5 μmol/L final concentration) or ApDC (final equivalent concentration of aptamer was 0.1 μmol/L and DOX—0.5 μmol/L) for 1 hour. After washing, cells were resuspended with fresh medium, cultured for 2 hours, and then examined under a 40× objective (Olympus FV 1000 confocal microscope). DOX fluorescence was excited with a 5 mW, 488 nm Ar+ laser.

[1] = test system: orthotopic MM tumors (RPMI8226GL); experiment: Orthotopic MM xenograft mouse model; format: in vivo, NOD/SCID IL2rg−/− mice; settings: 0.5 mg/kg Dox, every other day, 13 treatments, observed up to 60 days
Experimental: 0.5×10^6 RPMI8226 GL cells were inoculated bilaterally into tibiae of 8- to 10-week-old NOD/SCID IL2rg−/− mice. Engraftment was monitored by weekly whole-body bioluminescence imaging on Xenogen IVIS imaging system, as previously reported (Wen, J., Feng, Y, Bjorklund, C. C., Wang, M., Orlowski, R. Z., Shi, Z. Z., Liao, B., O'Hare, J., Zu, Y, Schally, A. V., et al. 2011. Luteinizing Hormone-Releasing Hormone (LHRH)-I antagonist cetrorelix inhibits myeloma cell growth in vitro and in vivo. Mol Cancer Ther 10:148-158). Starting with day 6, mice were treated with free DOX (0.5 mg/kg) or an equivalent ApDC amount (6 mice per group) every other day (13 treatments total). Treatments were administered via the tail vein injection. Bioluminescence intensities representative of tumor mass were quantified by Living Image 3.1. Mice were euthanized by CO2 as they became moribund and their survival curves were plotted with SPSS 10 statistical software (SPSS Inc., Chicago, Ill., USA). All experiments were approved by the IACUC of the Houston Methodist Research Institute. Cells isolated from tumor tissues were examined under a fluorescence microscope for GFP expression. […]

[2] = DNase I digestion, release of free DOX; format: physicochemical
control cells (HDLM2) [3] = experiment: Intracellular DOX delivery by confocal microscopy, control cells; format: cell-based; settings: HDLM2, 2 h treatment, equal molar DOX
Experimental: as §1

[4] = molecular target: T1, cellular CD38 proteins from MM cells (MM1S); experiment: Precipitation of cell lysate proteins with biotin-labeled aptamers, western blot with anti-CD38 antibody; format: binding; settings: MM1S lysates
Experimental: Immunoprecipitation with biotin-labeled aptamers was performed as previously reported (Shi, F., Cheng, Y. F., Wang, X. L., and Edge, A. S. 2010. Beta-catenin up-regulates Atohl expression in neural progenitor cells by interaction with an Atohl 3′ enhancer. J Biol Chem 285:392-400). In brief, cells were lysed in radioimmunoprecipitation assay (RIPA) buffer supplemented with Halt protease and phosphatase inhibitor cocktail (Thermo Fisher Scientific). Biotin-labeled aptamers were incubated with lysates for 2 hours at 4° C. in SELEX binding buffer supplemented with Halt protease and phosphatase inhibitor cocktail. Aptamer-bound proteins were collected with streptavidin agarose resin (Thermo Fisher Scientific) following 1 hour incubation at 4° C. Precipitated proteins were washed 5 times with SELEX washing buffer supplemented with Halt protease and phosphatase inhibitor cocktail, boiled in sample buffer, and supernatants were analyzed by western blotting using an anti-CD38 antibody (Cell Signaling Technology, Danvers, Mass.). […]

cultured MM cells (MM1S) = experiment: Fluorescence microscopy of a cell mixture stained with Cy3-labeled aptamer, MM cells; format: cell-based, Human
Experimental: (§2) For aptamer staining, cells were stained with Cy3-labeled aptamer at 50 nmol/L (for flow cytometry analysis) or 100 nmol/L (for fluorescence microscopy, Olympus America, Melville, N.Y.) for 30 minutes. For 5(6)-Carboxyfluorescein diacetate N-hydroxysuccinimidyl ester (CFSE, Abcam, Cambridge, Mass.) staining, CD38-control cells were pre-stained with 0.5 μmol/L CFSE for 15 minutes according to the manufacturer's specifications and mixed with unlabeled CD38+MM cells, followed by Cy3-labeled aptamer staining for 30 minutes. For antibody staining, cultured cells or mononuclear cells freshly isolated from MM patient bone marrow samples were stained with antibody (BioLegend) as specified for 15 minutes.

[5] = test system: xenograft tumors of MM (RPMI8226GL); experiment: Whole body fluorescent imaging of Cy5.5-labeled aptamer, MM tumor; format: in vivo, NOD/SCID IL2rg−/− mice
Experimental: (§3) In vitro biostability of Aptamer#1S was evaluated as previously described (49). In brief, the aptamer was incubated with human serum (Atlanta Biologicals) for 24 hours, and samples were collected at different times using phenol-chloroform extraction. The amount of undigested aptamer was visualized on a 5% agarose gel. In vivo experiments were done in accordance with the institutional guidelines for the use of laboratory animals. To determine the in vivo biostability of Aptamer#1S, 2×10^6 RPMI8226GL and K299GL cells were inoculated subcutaneously into 8- to 10-week-old NOD/SCID IL2rg−/− mice (Jackson Laboratory, Bar Harbor, Me.). Tumor growth was monitored by weekly whole-body bioluminescence imaging using Xenogen IVIS imaging system (PerkinElmer, Waltham, Mass.). Once tumors formed, 5 ng Cy5.5-labeled APTAMER#1S dissolved in PBS was injected via the tail vein and its signal was monitored on the IVIS system.

[6] = test system: CD38+ (RPMI8226 and NCI-H929) and CD38− (K299 and Jeko1) cell lines; experiment: Cell binding in additional CD38+ and CD38− cell lines
Experimental: as §2

[7] = Aptamer biostability in human serum, gel electrophoresis; format: in vitro ADME; settings: human serum at 37° C.
Experimental: as §3

[8] = test system: xenograft tumors of lymphoma (K299GL); experiment: Whole body fluorescent imaging of Cy5.5-labeled aptamer, control tumor; format: in vivo, NOD/SCID IL2rg−/− mice; settings: control tumor in the same mouse
Experimental: as §3

MM cells (MM1S) = experiment: Cell binding assay of Cy3-labeled aptamers by flow cytometry, CD38+ MM cells; set-up: species or system Human; settings: Cy3-labeled aptamer
From the text: (§4) The top-20 enriched aptamer sequences were synthesized to include Cy3 modification and their affinity and specificity analyzed by flow cytometry. Aptamer#1S was derived by truncating Aptamer#1 based on ValFold software structural prediction (VALWAY Technology Center, NEC Soft Ltd., Tokyo, Japan) (Navani, N. K., Mok, W. K., and Yingfu, L. 2009. In vitro selection of protein-binding DNA aptamers as ligands for biosensing applications. Methods Mol Biol 504:399-415).
as §2

[9] = test system: CD38 negative control cells (HDLM2); experiment: Fluorescence microscopy of a cell mixture stained with Cy3-labeled aptamer, control cells; format: cell-based; settings: control cells pre-stained in green
Experimental: as §2

[10] = DOX loading capacity by quenching of DOX fluorescence; format: physicochemical; settings: components alone, FIG. 3C
Experimental: DOX was purchased from Thermo Fisher Scientific. Since DOX preferentially binds to double-stranded 5′-GC-3′ or 5′-CG-3′ repeats (Meng, L., Yang, L., Zhao, X., Zhang, L., Zhu, H., Liu, C., and Tan, W. 2012. Targeted delivery of chemotherapy agents using a liver cancer-specific aptamer. PLoS One 7:e33434), CG repeats were added to the 5′ end of Aptamer#1S to make the modified Aptamer#1S/CG-Cargo sequence. To determine the optimal molar ratio of aptamer to DOX, Apamer#1S/CG-Cargo sequence was heated at 95° C. for 5 minutes, cooled immediately on ice for 15 minutes, and then incubated with a fixed concentration of DOX (final concentration of DOX was 0.5 μmol/L) at various aptamer/DOX ratios ranging from 1:100 to 1:0.5. After 1 hour, the fluorescence (λEx=[…], λEm=[…]) was measured with a Synergy4 analyzer (BioTek, Winooski, Vt.). The minimal ratio at which the fluorescence of DOX was quenched to the maximal extent was determined as the optimal molar ratio (1:5 of aptamer to DOX) (29).

control cells (HDLM2) [11] = experiment: Cell binding assay of Cy3-labeled aptamers by flow cytometry, CD38-negative control cells
From the text: as §4, §2

Row | Molecule | intracellular DOX delivery into MM cells (MM cells (RPMI8226)) | survival of mice bearing orthotopic MM tumors [1] | fluorescence change after DNase treatment [2] | intracellular DOX delivery into control cells (control cells (HDLM2) [3]) | precipitation of cellular CD38 protein [4] | targeting of MM cells in cell mixture (cultured MM cells (MM1S); Cy3-labeled aptamer) | internalization into MM cells (cultured MM cells (MM1S); intracellular signals) | accumulation in MM tumor ([5]; Cy5.5-labeled, systemic administration) | duration of specific imaging signals ([5]; post systemic administration) | affinity and specificity in additional MM and control cells [6] | time stable in human serum [7] [h] | accumulation in control tumor [8] | binding to MM cells (MM1S) (MM cells (MM1S)) | reaction with control cells in cell mixture [9] | drug loading capacity [10] | binding to control cells (HDLM2) (control cells (HDLM2) [11])
1 | COc1cccc2c1C(=O)c1c(O)c3c(c(O)c1C2=O)C[C@@](O)(C(=O)CO)C[C@@H]3O[C@H]1C[C@H](N)[C@H](O)[C@H](C)O1 [free DOX, doxorubicin] | non-specific intracellular drug accumulation | no effect on mouse survival | no change | non-specific intracellular drug accumulation |  |  |  |  |  |  |  |  |  |  |  | 
2 | B1 |  |  |  |  | specifically reacted to and immunoprecipitated cellular CD38 proteins | selectively targeted MM cells | internalized into the MM cells | selectively accumulated in MM tumor | up to 12 h | further confirmed | ≥ 24 | not in control tumor | specifically targeted MM cells | did not react to control cells | very limited drug loading capacity | did not react to CD38-negative control cells
